Results reported in the supplement of paper PMC12764529.
± gives the half width of the 95% confidence interval.

How the values were obtained:
[1] = folding stability dG unfold from trypsin proteolysis; higher = more stable
Method in brief: (§1)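 Designed mini-proteins (under 80 residues, no cysteine) in a PA-tagged cDNA display construct were digested with trypsin and chymotrypsin. Each protease was used at 11 concentrations (threefold dilutions) plus a no-protease condition, followed by sequencing. K50 was inferred by Bayesian fitting of sequencing counts, and unfolding free energy was derived against a sequence-predicted unfolded-state K50 and a shared folded-state K50, per protease or combined. Only designs with AlphaFold2 dimer inter-PAE above 15 were kept.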

[2] = folding stability dG unfold from chymotrypsin proteolysis; higher = more stable
Method in brief: as §1

[3] = folding stability dG unfold (combined trypsin and chymotrypsin); higher = more stable
Method in brief: as §1

Sequence | folding stability dG unfold [1] | folding stability dG unfold [2] | folding stability dG unfold [3]
SAGGSAGGSAGGMKTITLTTTSPEEAEAAKEKLLKEGPNNLVITYKPPPEPYPENGPRVVSAGGSAGGSAGG [r7_261_JUSTAS] | -0.294 ± 0.25 kcal/mol | 0.743 ± 0.14 kcal/mol | 0.683 ± 0.21 kcal/mol
SAGGSAGGSAGGMKTLTVTTESLTKEEIIEEIKAMGYPNAKVTVTPSPENPDKYIVNVIESAGGSAGGSAGG [r7_988_JUSTAS] | 0.292 ± 0.091 kcal/mol | 0.736 ± 0.13 kcal/mol | 0.404 ± 0.18 kcal/mol
SAGGSAGGSAGGMKVKAYIFENGKLKEIELSEEELKELLKKLPNARILIEVDGKKLELPASAGGSAGGSAGG [r7_188_TrROS_Hall] | 1.93 ± 0.083 kcal/mol | 3.79 ± 0.12 kcal/mol | 3.51 ± 0.2 kcal/mol
SAGGSAGGSAGGMKVTTINLPDGTTIEYYPETGSVTIHPSDGSVSTRPDLTLEDVLAALSAGGSAGGSAGGS [r10_569_JUSTAS] | 2.38 ± 0.066 kcal/mol | 1.81 ± 0.031 kcal/mol | 2.07 ± 0.051 kcal/mol
SAGGSAGGSAGGMLSGQVIEVTIPPERRLVRVEKLPSGDYLITIYRPDEPKPLETLRIRASAGGSAGGSAGG [r7_620_JUSTAS] | 1.49 ± 0.034 kcal/mol | 1.92 ± 0.071 kcal/mol | 1.78 ± 0.11 kcal/mol
SAGGSAGGSAGGMLYVKVKTEDGEELVLEVEGMTEDEIREELAKAGFKIEEIEVYEVEPSAGGSAGGSAGGS [r10_572_TrROS_Hall] | 2.36 ± 0.093 kcal/mol | 2.83 ± 0.018 kcal/mol | 2.71 ± 0.06 kcal/mol
SAGGSAGGSAGGMPLVRIEVTNENGEKFTFIFESEEEAKAAAEALGVDVKIEKIPPGEEISAGGSAGGSAGG [r7_456_TrROS_Hall] | 2.54 ± 0.17 kcal/mol | 3.25 ± 0.085 kcal/mol | 2.92 ± 0.14 kcal/mol
SAGGSAGGSAGGMPPATTVVEKPETSLTLEKTPTTVTIHDKATGKTSTVPAAEVDPALLSAGGSAGGSAGGS [r10_512_JUSTAS] | -0.373 ± 0.11 kcal/mol | 0.297 ± 0.075 kcal/mol | 0.138 ± 0.1 kcal/mol
SAGGSAGGSAGGMPPFVELEFVGEFKVNGEKVLVLRLPDGSIRIVNLKTGETITVPASLLSAGGSAGGSAGG [r7_28_JUSTAS] | 2.33 ± 0.048 kcal/mol | 2.67 ± 0.038 kcal/mol | 2.57 ± 0.067 kcal/mol
SAGGSAGGSAGGMPPGTVVRSEVVRTETFTETITLPSGETATTTVTTTTTTEVEVEQPLSAGGSAGGSAGGS [r10_297_JUSTAS] | 0.233 ± 0.079 kcal/mol | 0.469 ± 0.047 kcal/mol | 0.54 ± 0.22 kcal/mol
SAGGSAGGSAGGMPTYEVTLEPDPTGGDVYTVTVTFPDGSTVTRNATPAELKAEGLTVKVSAGGSAGGSAGG [r7_14_JUSTAS] | 1.09 ± 0.039 kcal/mol | 0.88 ± 0.044 kcal/mol | 0.967 ± 0.072 kcal/mol
SAGGSAGGSAGGMPVEVTTLETRKDPAGTTTEITLDPKTGRTIIVTKYPNGGSETTVVESAGGSAGGSAGGS [r10_1118_JUSTAS] | 0.788 ± 0.069 kcal/mol | 0.504 ± 0.065 kcal/mol | 0.622 ± 0.17 kcal/mol
SAGGSAGGSAGGMRIRLENGEVIKIKNAKTKEELLNALKAIPGLKIEYDEETKELWIYRSAGGSAGGSAGGS [r10_792_TrROS_Hall] | 1.88 ± 0.075 kcal/mol | 2.33 ± 0.097 kcal/mol | 2.22 ± 0.16 kcal/mol
SAGGSAGGSAGGMSLSTSVESLTVFDSSGNVLEERTITVEKTVPLFGKPVYVYPTPSNTLSAGGSAGGSAGG [r17_325_JUSTAS] | 0.136 ± 0.1 kcal/mol | 0.248 ± 0.11 kcal/mol | 0.265 ± 0.12 kcal/mol
SAGGSAGGSAGGMSPGSSSTTVTTTTSPNGTVVTTTTTTTLDPNSNTTSSTTTTTTTTTSAGGSAGGSAGGS [r10_1164_JUSTAS] | 3.15 ± 0.25 kcal/mol | 1.74 ± 0.18 kcal/mol | 2.42 ± 0.25 kcal/mol
SAGGSAGGSAGGMSSTVSLSTSFLPNGEKVVTTTTTFTDSSTTTTTTTTTTVALPPPSVVSAGGSAGGSAGG [r7_495_JUSTAS] | 1.14 ± 0.075 kcal/mol | 0.984 ± 0.093 kcal/mol | 1.23 ± 0.14 kcal/mol
SAGGSAGGSAGGMSVTVSREKLPDGSYLVTVTTEVGGGPVTTPYRVPPSLSSAEEVVEKLSAGGSAGGSAGG [r7_75_JUSTAS] | -0.0439 ± 0.14 kcal/mol | -0.659 ± 0.51 kcal/mol | -0.23 ± 0.2 kcal/mol
SAGGSAGGSAGGMTAIIVESEEEAKKIAEEKGIKDVKFIPKGKPELLKPDVDKVIKINKKSAGGSAGGSAGG [r7_381_JUSTAS] | -0.282 ± 0.22 kcal/mol | 0.348 ± 0.075 kcal/mol | 0.102 ± 0.33 kcal/mol
SAGGSAGGSAGGMTAKEIAEKLGLPPGAKVVKIEYDKETNTFYIVIEVDGELKTYRIDVSAGGSAGGSAGGS [r10_17_TrROS_Hall] | 4.2 ± 0.14 kcal/mol | 4.765 ± 0.037 kcal/mol | 4.69 ± 0.087 kcal/mol
SAGGSAGGSAGGMTITIKVPPNMTEEQLRELARELARKLGLEDVEVRIERREDGTVRITFSAGGSAGGSAGG [r7_810_TrROS_Hall] | 4.91 ± 0.2 kcal/mol | 4.83 ± 0.12 kcal/mol | 4.85 ± 0.15 kcal/mol
SAGGSAGGSAGGMTITLVDPENGVKEAEIEEVDGKLRITVVNEETGEKEEIELPLEELLSAGGSAGGSAGGS [r10_772_TrROS_Hall] | 0.648 ± 0.063 kcal/mol | 0.288 ± 0.14 kcal/mol | 0.477 ± 0.16 kcal/mol
